Experiments:
[1] = molecular target: wild-type human TpoR on Ba/F3-hMpl cells (human) (UniProt P40238); assay: cell-based or functional assay
[2] = molecular target: TpoR-IL6ST chimeric receptor on HEK293T SIE-bla reporter cells (clone CR2-9) (human) (UniProt P40238); assay: cell-based or functional assay
[3] = molecular target: granulocyte colony stimulating factor receptor (UniProt Q99062)
granulocyte colony stimulating factor receptor, sequence (Q99062 25-836 limits assumed): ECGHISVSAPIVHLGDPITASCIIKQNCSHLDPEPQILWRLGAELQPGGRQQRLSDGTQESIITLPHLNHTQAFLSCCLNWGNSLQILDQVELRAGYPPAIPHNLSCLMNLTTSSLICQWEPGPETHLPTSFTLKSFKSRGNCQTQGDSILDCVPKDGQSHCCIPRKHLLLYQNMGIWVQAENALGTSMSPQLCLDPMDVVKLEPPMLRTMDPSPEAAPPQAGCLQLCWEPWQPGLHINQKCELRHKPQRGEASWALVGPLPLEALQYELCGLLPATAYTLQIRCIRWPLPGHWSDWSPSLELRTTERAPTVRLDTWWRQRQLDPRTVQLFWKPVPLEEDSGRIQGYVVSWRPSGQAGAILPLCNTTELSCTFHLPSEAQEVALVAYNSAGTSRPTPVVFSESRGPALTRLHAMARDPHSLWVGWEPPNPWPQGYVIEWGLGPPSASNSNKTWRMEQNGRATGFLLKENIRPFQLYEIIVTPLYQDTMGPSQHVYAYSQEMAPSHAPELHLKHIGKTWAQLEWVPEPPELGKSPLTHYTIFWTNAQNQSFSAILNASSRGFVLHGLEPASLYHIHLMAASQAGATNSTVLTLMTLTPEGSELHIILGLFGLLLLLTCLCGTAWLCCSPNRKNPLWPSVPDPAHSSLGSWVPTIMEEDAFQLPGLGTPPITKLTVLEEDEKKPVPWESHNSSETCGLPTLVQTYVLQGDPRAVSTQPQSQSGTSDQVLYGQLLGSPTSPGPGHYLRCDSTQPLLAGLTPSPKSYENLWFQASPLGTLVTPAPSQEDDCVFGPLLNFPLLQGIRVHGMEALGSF

Substance | EC50, long-term proliferation assay (MTS) of Ba/F3-hMPL cells [1] [pM] | EC50, short-term fluorescence (FRET beta-lactamase) reporter assay [2] [pM] | Responsive Population (fraction of reporter cells in the gate, Pacific Blue-A against AmCyan-A, FRET beta-lactamase reporter; unit not given) [3]
Thrombopoietin (from UniProt P40225 22-353) (ligand) | 70 | 20 | –
granulocyte colony stimulating factor (from UniProt P09919 31-204) (ligand) | – | – | 84.2
